From patent US20210355215A1

Target: BsAb CD3-BCMA (human)
Experiment: 1 mL CH1-XL column, purified BsAb 5 mg/ml load, residence time 4 min, 10% breakthrough

BsAb CD3-BCMA (human), sequence (heavy, as listed by the source, chain 1 of 3): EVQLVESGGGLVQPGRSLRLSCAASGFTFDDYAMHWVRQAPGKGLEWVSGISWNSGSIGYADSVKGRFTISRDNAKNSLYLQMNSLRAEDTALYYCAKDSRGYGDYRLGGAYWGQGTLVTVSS
BsAb CD3-BCMA (human), sequence (light, as listed by the source, chain 2 of 3): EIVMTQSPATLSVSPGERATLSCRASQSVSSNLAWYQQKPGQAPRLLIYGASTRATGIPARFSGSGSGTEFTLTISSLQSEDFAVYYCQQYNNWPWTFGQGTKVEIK
BsAb CD3-BCMA (human), sequence (heavy, as listed by the source, chain 3 of 3): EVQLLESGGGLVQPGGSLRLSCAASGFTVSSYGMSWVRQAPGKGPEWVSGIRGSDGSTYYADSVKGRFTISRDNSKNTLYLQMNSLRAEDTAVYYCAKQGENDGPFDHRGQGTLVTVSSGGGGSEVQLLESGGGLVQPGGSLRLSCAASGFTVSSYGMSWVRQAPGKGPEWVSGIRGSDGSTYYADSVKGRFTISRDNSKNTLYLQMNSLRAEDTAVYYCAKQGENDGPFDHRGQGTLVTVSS

CaptureSelect CH1-XL affinity resin ligand (13 kDa llama heavy chain antibody fragment, Ig heavy chain CH1-specific nanobody) (VHH)
dynamic binding capacity: 9.3 mg/mL
